Each block holds one binder with its values, some of them ahead of it.
Key:
[1] = biological target: T1, recombinant human protein antigen hu-IL-11-His tag (human, UniProt P20809 22-199); experiment: BLI (Octet QKe), IL-11 (His tag) on Ni-NTA sensor, antibody as analyte
T1 construct: also called IL-11-His protein; not shown: His tag
T1 sequence (looked up): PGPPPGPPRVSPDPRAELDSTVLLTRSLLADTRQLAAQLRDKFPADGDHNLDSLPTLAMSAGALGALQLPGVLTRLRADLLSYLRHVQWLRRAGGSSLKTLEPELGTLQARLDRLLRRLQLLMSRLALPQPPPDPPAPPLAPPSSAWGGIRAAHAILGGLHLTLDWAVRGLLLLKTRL
Protocol: The analytes were diluted in 7 concentration gradients, the binding time was 60 s and the dissociation time was 1000 s. The buffer was 20 mM PBS, 0.15M NaCl, 0.1% BSA, 0.05% Tween 20, pH 7.4. […] In this example, Pall ForteBio (Octet QKe) instrument was used to determine the affinity of antibodies for antigens.

IL-11-Fc protein = biological target: T2, IL-11-Fc protein (UniProt P20809 22-199, limits assumed); experiment: flow cytometry competition: IL-11-Fc plus antibody on membrane-IL-11R CHO cells
T2 construct: also called IL-11 recombinant protein with Fc tag; not shown: Fc tag
T2 sequence (looked up): T1 sequence (looked up)
Text: The secondary antibody (Goat-anti-Fc-FITC) (Abcam, ab98529) conjugated with FITC fluorophore was used for detection.

[2] = biological target: T3, recombinant CT-1 (R&D systems, 612-CD-010) (UniProt Q16619 2-201); experiment: ELISA, cytokine coated
T3 sequence (looked up): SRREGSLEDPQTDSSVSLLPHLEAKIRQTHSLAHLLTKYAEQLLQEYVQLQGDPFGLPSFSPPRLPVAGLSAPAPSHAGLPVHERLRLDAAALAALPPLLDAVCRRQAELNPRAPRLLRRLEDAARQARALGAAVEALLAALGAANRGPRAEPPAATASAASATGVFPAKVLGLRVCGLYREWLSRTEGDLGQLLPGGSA

[3] = biological target: T4, recombinant IL-27 (R&D systems, 2526-IL-010) (UniProt Q8NEV9 29-243; Q14213 21-229); experiment: ELISA, cytokine coated
T4 construct: the bought product may be a single-chain fusion
T4 sequence (looked up) 1: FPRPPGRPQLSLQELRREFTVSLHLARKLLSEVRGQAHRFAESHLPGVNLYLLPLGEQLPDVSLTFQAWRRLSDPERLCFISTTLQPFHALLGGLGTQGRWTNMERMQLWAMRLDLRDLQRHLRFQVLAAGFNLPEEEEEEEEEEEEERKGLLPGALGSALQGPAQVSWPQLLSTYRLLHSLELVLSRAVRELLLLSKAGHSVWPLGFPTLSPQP
T4 sequence (looked up) 2: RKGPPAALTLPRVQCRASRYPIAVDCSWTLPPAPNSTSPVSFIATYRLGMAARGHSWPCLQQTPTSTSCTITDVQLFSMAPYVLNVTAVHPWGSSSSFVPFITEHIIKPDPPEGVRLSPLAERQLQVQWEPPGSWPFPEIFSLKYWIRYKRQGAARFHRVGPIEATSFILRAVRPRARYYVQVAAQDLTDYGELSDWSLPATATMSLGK

[4] = biological target: T5, recombinant CLC (R&D systems, 962-CL-050) (UniProt Q9UBD9 28-225); experiment: ELISA, cytokine coated
T5 sequence (looked up): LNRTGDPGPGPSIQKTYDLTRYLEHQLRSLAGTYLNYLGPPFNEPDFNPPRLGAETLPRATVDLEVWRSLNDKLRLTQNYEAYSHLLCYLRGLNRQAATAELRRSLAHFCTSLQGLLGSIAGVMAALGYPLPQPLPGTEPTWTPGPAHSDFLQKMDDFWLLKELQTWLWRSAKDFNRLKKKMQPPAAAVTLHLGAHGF

[5] = biological target: T6, recombinant IL-6 (Sinobiological-10395-HNAE) (UniProt P05231 30-212); experiment: ELISA, cytokine coated
[6] = biological target: T7, recombinant LIF (Peprotech, 300-05) (UniProt P15018 23-202); experiment: ELISA, cytokine coated
T7 sequence (P15018 23-202 limits assumed): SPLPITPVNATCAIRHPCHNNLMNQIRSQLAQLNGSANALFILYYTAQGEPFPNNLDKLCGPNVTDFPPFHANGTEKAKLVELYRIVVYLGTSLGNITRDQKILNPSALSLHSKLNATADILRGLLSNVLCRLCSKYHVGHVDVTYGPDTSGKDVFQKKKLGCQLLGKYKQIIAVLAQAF

[7] = biological target: T8, recombinant OSM (Genscript-z03132) (UniProt P13725 26-221, limits assumed); experiment: ELISA, cytokine coated
T8 sequence (looked up): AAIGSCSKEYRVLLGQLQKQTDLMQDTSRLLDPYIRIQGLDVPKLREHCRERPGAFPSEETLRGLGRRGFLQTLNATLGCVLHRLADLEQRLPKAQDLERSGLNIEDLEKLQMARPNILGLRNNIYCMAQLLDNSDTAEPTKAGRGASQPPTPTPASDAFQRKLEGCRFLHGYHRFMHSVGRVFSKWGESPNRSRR

[8] = biological target: T9, recombinant IL-31 (Peprotech, 200-31) (UniProt Q6EBC2 24-164); experiment: ELISA, cytokine coated
T9 sequence (looked up): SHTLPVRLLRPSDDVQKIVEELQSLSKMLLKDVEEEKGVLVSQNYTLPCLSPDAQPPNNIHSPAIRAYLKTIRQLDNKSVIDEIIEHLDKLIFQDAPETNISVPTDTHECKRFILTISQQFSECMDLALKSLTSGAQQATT

[9] = biological target: T10, recombinant CNTF (R&D systems, 257-NT-010) (UniProt P26441 2-200); experiment: ELISA, cytokine coated
T10 sequence (looked up): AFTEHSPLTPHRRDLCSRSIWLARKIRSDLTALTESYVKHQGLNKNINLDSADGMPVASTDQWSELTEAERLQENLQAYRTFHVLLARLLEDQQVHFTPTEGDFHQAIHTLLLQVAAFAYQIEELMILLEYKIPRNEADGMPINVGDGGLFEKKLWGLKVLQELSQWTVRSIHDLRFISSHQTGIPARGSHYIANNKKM

[10] = biological target: T11, recombinant IL-11 (LSBio, LS-G132887-10) (UniProt P20809 22-199); experiment: ELISA, cytokine coated
T11 sequence (looked up): T1 sequence (looked up)

[11] = biological target: T3, recombinant CT-1 (R&D systems, …); experiment: ELISA, cytokine coated; remark: listed apart in the source
[12] = biological target: T4, recombinant IL-27 (R&D systems, …); experiment: ELISA, cytokine coated; remark: listed apart in the source
[13] = biological target: T5, recombinant CLC (R&D systems, …); experiment: ELISA, cytokine coated; remark: listed apart in the source
[14] = biological target: T6, recombinant IL-6 …; experiment: ELISA, cytokine coated; remark: listed apart in the source
[15] = biological target: T7, recombinant LIF (Peprotech, 300-05); experiment: ELISA, cytokine coated; remark: listed apart in the source
[16] = biological target: T8, recombinant OSM (Genscript-z03132); experiment: ELISA, cytokine coated; remark: listed apart in the source
[17] = biological target: T9, recombinant IL-31 (Peprotech, 200-31); experiment: ELISA, cytokine coated; remark: listed apart in the source
[18] = biological target: T10, recombinant CNTF (R&D systems, …); experiment: ELISA, cytokine coated; remark: listed apart in the source

Kd [1]: 0.0393 nM
koff [1]: 4.16e-05 s⁻¹
kon [1]: 1.06e+06 M⁻¹ s⁻¹
IC50 (IL-11-Fc protein): ~7 µg/mL
binding result [2]: no binding
binding result [3]: no binding
binding result [4]: no binding
binding result [5]: no binding
binding result [6]: no binding
binding result [7]: no binding
binding result [8]: no binding
binding result [9]: no binding
OD450 nm [10]: 1.88 OD450
OD450 nm [11]: 0.041 OD450
OD450 nm [12]: 0.035 OD450
OD450 nm [13]: 0.042 OD450
OD450 nm [14]: 0.039 OD450
OD450 nm [15]: 0.084 OD450
OD450 nm [16]: 0.102 OD450
OD450 nm [17]: 0.088 OD450
OD450 nm [18]: 0.064 OD450
B1: 3-6A4 (recombinant, expressed in CHO, Example 6) (antibody, human IgG1, kappa, V domains shown)
VH: QIQLVQSGPELKKPGETVKISCKASGYTFTTNGINWVKQAAGKGLKWMGWINTNTGEPTNAEELKGRFAFSLETSASTAYLQINNLKNEDAAIYFCAREGAFGLDYWGQGTSVTVSS
VL: SIVMTQSPKFLLVSAGDRVIITCKASQSVSNDVVWYQQKPGQSPKLLIYYGSHRNTGVPTRFTGSGYGTDFTFTISTVQAEDLAVYFCQQDFFSPWTFGGGTKLEIKR

Kd [1]: 0.069 nM
koff [1]: 1.21e-05 s⁻¹
kon [1]: 175000 M⁻¹ s⁻¹
IC50 (IL-11-Fc protein): ~21 µg/mL
binding result [2]: no binding
binding result [3]: no binding
binding result [4]: no binding
binding result [5]: no binding
binding result [6]: no binding
binding result [7]: no binding
binding result [8]: no binding
binding result [9]: no binding
OD450 nm [10]: 1.93 OD450
OD450 nm [11]: 0.034 OD450
OD450 nm [12]: 0.048 OD450
OD450 nm [13]: 0.033 OD450
OD450 nm [14]: 0.049 OD450
OD450 nm [15]: 0.037 OD450
OD450 nm [16]: 0.045 OD450
OD450 nm [17]: 0.036 OD450
OD450 nm [18]: 0.036 OD450
B2: 5-20E11-5F2 (recombinant, expressed in CHO, Example 6) (antibody, human IgG1, kappa, V domains shown)
VH: QVQLQQSGAELVRPGTSAKISCKASDYTFTNYWLGWLKQRPGHGLEWIGHIYPGGGYTNYNEKFKGKATLTADTSSSTAYMQLSSLTSEDSAVYFCARVRSGNDALDFWGQGTSVTVSS
VL: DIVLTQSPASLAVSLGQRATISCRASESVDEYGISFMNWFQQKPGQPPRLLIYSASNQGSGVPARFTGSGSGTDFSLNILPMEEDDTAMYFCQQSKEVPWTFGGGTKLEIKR

From US20250002574A1 (SUNSHINE LAKE PHARMA, published 2025)
